B1: Ras-related GTP-binding protein D (Homo sapiens), Q9NQL2 (parent)
chain: MSQVLGKPQPQDEDDAEEEEEEDELVGLADYGDGPDSSDADPDSGTEEGVLDFSDPFSTEVKPRILLMGLRRSGKSSIQKVVFHKMSPNETLFLESTNKICREDVSNSSFVNFQIWDFPGQIDFFDPTFDYEMIFRGTGALIFVIDSQDDYMEALARLHLTVTRAYKVNTDINFEVFIHKVDGLSDDHKIETQRDIHQRANDDLADAGLEKIHLSFYLTSIYDHSIFEAFSKVVQKLIPQLPTLENLLNIFISNSGIEKAFLFDVVSKIYIATDSTPVDMQTYELCCDMIDVVIDISCIYGLKEDGAGTPYDKESTAIIKLNNTTVLYLKEVTKFLALVCFVREESFERKGLIDYNFHCFRKAIHEVFEVRMKVVKSRKVQNRLQKKKRATPNGTPRVLL

Variants of: B1
Settings: with sylc_human LARS1, Q9P2J5
sylc_human LARS1, Q9P2J5, sequence (Q9P2J5 whole entry, looked up): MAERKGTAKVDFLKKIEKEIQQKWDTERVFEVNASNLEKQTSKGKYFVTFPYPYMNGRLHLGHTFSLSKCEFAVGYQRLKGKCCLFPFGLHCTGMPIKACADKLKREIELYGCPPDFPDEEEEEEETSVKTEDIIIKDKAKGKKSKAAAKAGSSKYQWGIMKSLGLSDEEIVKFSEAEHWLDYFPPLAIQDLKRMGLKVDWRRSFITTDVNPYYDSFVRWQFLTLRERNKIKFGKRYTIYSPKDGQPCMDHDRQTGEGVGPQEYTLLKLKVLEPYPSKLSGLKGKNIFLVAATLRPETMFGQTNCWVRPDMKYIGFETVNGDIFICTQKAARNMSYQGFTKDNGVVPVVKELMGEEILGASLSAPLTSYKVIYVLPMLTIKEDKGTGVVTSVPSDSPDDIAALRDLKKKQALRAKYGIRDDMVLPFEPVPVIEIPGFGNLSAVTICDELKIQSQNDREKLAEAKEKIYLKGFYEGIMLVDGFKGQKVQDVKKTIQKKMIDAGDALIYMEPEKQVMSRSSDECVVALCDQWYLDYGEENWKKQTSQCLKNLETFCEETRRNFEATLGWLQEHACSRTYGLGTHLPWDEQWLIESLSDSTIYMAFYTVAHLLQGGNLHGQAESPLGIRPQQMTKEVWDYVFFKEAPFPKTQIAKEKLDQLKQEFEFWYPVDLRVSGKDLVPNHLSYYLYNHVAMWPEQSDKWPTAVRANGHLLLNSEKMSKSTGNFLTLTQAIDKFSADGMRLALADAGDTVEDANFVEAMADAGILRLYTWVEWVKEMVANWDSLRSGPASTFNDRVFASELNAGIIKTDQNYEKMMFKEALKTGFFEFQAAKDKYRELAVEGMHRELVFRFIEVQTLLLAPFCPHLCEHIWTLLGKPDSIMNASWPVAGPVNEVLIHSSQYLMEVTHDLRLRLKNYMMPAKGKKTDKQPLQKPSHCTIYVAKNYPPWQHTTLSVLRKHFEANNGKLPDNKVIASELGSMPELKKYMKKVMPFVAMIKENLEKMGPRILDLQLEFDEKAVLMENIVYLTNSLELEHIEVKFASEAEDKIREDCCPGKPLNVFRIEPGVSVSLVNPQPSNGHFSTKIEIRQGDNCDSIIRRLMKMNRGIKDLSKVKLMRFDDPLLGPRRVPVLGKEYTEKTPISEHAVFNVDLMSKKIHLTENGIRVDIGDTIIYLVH

| Variant | effect of a mutation on the interaction |
| --- | --- |
| MSQVLGKPQPQDEDDAEEEEEEDELVGLADYGDGPDSSDADPDSGTEEGVLDFSDPFSTEVKPRILLMGLRRSGKSSIQKVVFHKMSPNETLFLESTNKICREDVSNSSFVNFQIWDFPGLIDFFDPTFDYEMIFRGTGALIFVIDSQDDYMEALARLHLTVTRAYKVNTDINFEVFIHKVDGLSDDHKIETQRDIHQRANDDLADAGLEKIHLSFYLTSIYDHSIFEAFSKVVQKLIPQLPTLENLLNIFISNSGIEKAFLFDVVSKIYIATDSTPVDMQTYELCCDMIDVVIDISCIYGLKEDGAGTPYDKESTAIIKLNNTTVLYLKEVTKFLALVCFVREESFERKGLIDYNFHCFRKAIHEVFEVRMKVVKSRKVQNRLQKKKRATPNGTPRVLL [Q121L] | increasing interaction strength |
| MSQVLGKPQPQDEDDAEEEEEEDELVGLADYGDGPDSSDADPDSGTEEGVLDFSDPFSTEVKPRILLMGLRRSGKSLIQKVVFHKMSPNETLFLESTNKICREDVSNSSFVNFQIWDFPGQIDFFDPTFDYEMIFRGTGALIFVIDSQDDYMEALARLHLTVTRAYKVNTDINFEVFIHKVDGLSDDHKIETQRDIHQRANDDLADAGLEKIHLSFYLTSIYDHSIFEAFSKVVQKLIPQLPTLENLLNIFISNSGIEKAFLFDVVSKIYIATDSTPVDMQTYELCCDMIDVVIDISCIYGLKEDGAGTPYDKESTAIIKLNNTTVLYLKEVTKFLALVCFVREESFERKGLIDYNFHCFRKAIHEVFEVRMKVVKSRKVQNRLQKKKRATPNGTPRVLL [S77L] | decreasing interaction strength |
